Experiment [1] has as its system human mammary epithelial cells. In words: Total cell count among formed human mammary organoids. The class given is cell-based.
Method: Cryopreserved pellet A and pellet B were dissociated into a single cell suspension by treatment with 0.25% Trypsin-EDTA for 5 minutes at 37° C. (with intermittent trituration) and then centrifuged at (300 g for 5 minutes). The supernatant was discarded and the pellet was resuspended in a 100 μg/ml DNase solution for 1 minute at room temperature. The resulting cells were passed through a 37 μm strainer to obtain the single cell suspension.
Each well received between 0.5-1 mL of any one of the various culture media described herein. […]
The effects of modulating signaling through BMP were analyzed across multiple experiments in terms of total cell count among formed organoids (FIG. 9A) and the lineage balance of the cells among formed organoids (FIG. 9B).
The effects of modulating signaling through an ERBB receptor family member were analyzed across multiple experiments in terms of total cell count among formed organoids (FIG. 13A) and the lineage balance of the cells among formed organoids (FIG. 13B).
The subject of experiment [2] is human mammary epithelial cells. The experiment is described as follows: Human mammary organoid cell lineage balance by flow cytometry. The following applies: for cell lineage balance, BMP signaling modulators: ~50 ng/mL BMP2 or BMP4, ~25-200 ng/mL NOGGIN or ~10-100 nM LDN193189.
Experiment [3] deals with mouse mammary epithelial cells. The experiment is described as follows: Mouse mammary organoid formation, organoid organization by brightfield/confocal imaging. The class given is cell-based. The following applies: for type of organoids formed from bulk (non-sorted) mammary epithelial cells: RSPO comprising media vs media free of RSPO (luminal-biased/cystic). As to the method: (§1) A single cell suspension of mouse mammary epithelial cells was isolated from mammary glands, as follows. A resected mammary gland was minced and placed in a tube containing standard culture medium, including 50 μg/ml gentamycin, collagenase, and hyaluronidase. The mammary gland was incubated for 2 hours at 37° C. in the tissue incubator. Following the incubation, the cell dissociation mixture was washed in advanced DMEM and centrifuged at 300 g for 5 minutes. Depending on the appearance of the pellet, in some cases it is desirable to resuspend the pellet in ammonium chloride to lyse contaminating red blood cells. Following, the pellet is resuspended in 0.25% Trypsin-EDTA, as above, for 5 minutes at 37° C. and then centrifuged at (300 g for 5 minutes). The supernatant was discarded and the pellet was resuspended in a 100 μg/ml DNase solution for 1 minute at room temperature. The resulting cells were passed through a 37 μm strainer to obtain the single cell suspension.
Each well received between 0.5-1 mL of any one of the various culture media described herein.
The plated single cell suspension of mammary epithelial cells formed into organoids that were passaged approximately every 7-days, with 2-3 full medium changes during such 7-day period. To passage the organoids, the Matrigel domes were broken apart by pipetting in pre-warmed 0.25% Trypsin-EDTA, incubating at 37° C. for ˜ 5-15 minutes and pipetting again. The trypsinization reaction was inactivated by washing in an equal volume of Hanks Balanced Salt Solution supplemented with 2% FBS. Depending on the density and size of organoids a 1:2-1:5 split was performed, with the cells seeded as domes, as described above. Alternatively, cells would be strained through a 37 μm strainer to obtain the single cell suspension and seeded in Matrigel domes as described above.
Single cell suspensions of mouse mammary epithelial cells were obtained in accordance with Example 1. The single cell suspension was sorted using a BD FACSAria™ Fusion flow cytometer into three populations of cells corresponding to the ER^+, milk, and basal cell lineages, based on the differential expression of EpCAM, CD49f, and CD49b. Non-epithelial cells were further eliminated during the sorting strategy based on the expression of CD45, Ter119 and CD31. The sorted cells were seeded and cultured essentially as described in Example 2 in an organoid medium free of an exogenously-added inhibitor of BMP signaling and either comprising exogenously added RSPO-1 (˜100 ng/mL) or lacking exogenously added RSPO-1 (e.g. MammoCult™ Mouse Organoid Growth Medium, […] Technologies) (FIG. 2).
Organoid media were formulated to lack either exogenously added RSPO-1 or RSPO-3, and they were tested on single cell suspensions of bulk mammary epithelial cells, obtained in accordance with Example 1 and seeded and cultured as described in Example 2. […] Flow cytometry analysis of the cellular composition of organoids formed in either RSPO-comprising media or media lacking RSPO confirmed a reduction in the number of basal cells among organoids formed in the absence of WNT agonism (FIG. 3B).
In a follow-up experiment, organoids were formed from single cell suspensions obtained in accordance with Example 1, and seeded and cultured as described in Example 2. […] At the end of the second passage the formed organoids were processed and stained for K8, K14, and DAPI, as described in Example 3.
The foregoing experiments were performed in a medium that included an inhibitor of BMP signaling, thus the effect of BMP signaling inhibition on the formation of mouse mammary organoids was explored.

The test system of experiment [4] is mouse mammary epithelial cells. The experiment is described as follows: Mouse mammary organoid cell lineage balance by flow cytometry (EpCAM, CD49f). The class given is cell-based. The following applies: non-sorted mouse cells; ~100 ng/mL NOGGIN and ~100 ng/mL RSPO-1 together vs free of both; 8 independent experiments; 14 days (P0). The method, then: Panels A) and B) show representative images of organoids after cells were cultured for 14 days (P0) in an R-spondin-containing (panel A) or an R-spondin-free (panel B) medium. Cells of the organoids shown in panels A) and B) were respectively analyzed by flow cytometry for expression of EpCAM and CD49f (panels C) and D)). A summary of flow cytometry data is shown in panel E. Results were confirmed in n=8 mice. Scale bars are 500 μm.
as §1, with “The resulting cells were passed through a 37 μm strainer to obtain the single cell suspension.” left out
In general terms: Flow cytometry measures light scatter and fluorescence of single cells or particles in a stream.

Experiment [5] deals with human mammary epithelial cells. In words: Human mammary organoid formation, brightfield microscopy. The class given is cell-based. The method, then:
Fragments of human mammary epithelial cells were isolated from tissue samples obtained from academic collaborators, as follows. Resected tissue samples were minced in a petri dish using a scalpel to cut in a cross-hatched pattern. The minced tissue samples were placed in a dissociation flask in standard culture medium supplemented with BSA, insulin, collagenase and hyaluronidase. The flask was gently shaken overnight on an orbital shaker placed in a 37° C. tissue incubator. The following morning the floating layer of fat was removed by pipette, and the remaining liquid was transferred to a tube and briefly centrifuged at low rpm (˜80 g for 30 seconds). The pellet (A pellet) was set aside and the supernatant was further centrifuged for an incrementally longer period of time and at an incrementally higher rpm (˜200 g for 4 minutes). The pellet (B pellet) was set aside and the supernatant was further centrifuged for a still incrementally longer period of time and at an incrementally higher rpm (˜450 g for 5 minutes).
Cryopreserved pellet A and pellet B were dissociated into a single cell suspension by treatment with 0.25% Trypsin-EDTA for 5 minutes at 37° C. (with intermittent trituration) and then centrifuged at (300 g for 5 minutes). The supernatant was discarded and the pellet was resuspended in a 100 μg/ml DNase solution for 1 minute at room temperature. […]

B1: amphiregulin (protein, UniProt P15514 101-187, looked up)
Amphiregulin: SVRVEQVVKPPQNKTESENTSDKPKRKKKGGKNGKNRRNRKKKNPCNAEFQNFCIHGECKYIEHLEAVTCKCQQEYFGERCGEKSMK
notes: ligand of ERBB1
Regarding B1, the “total cell count among formed organoids, ERBB modulators” value in experiment [1] (vs control with no modulation of ERBB signaling) was “highest mitogenic activity”. Further, the “cell lineage balance, ERBB receptor family ligands” value in experiment [2] (just prior to first passage, ~10-50 ng/mL AREG, ~10-50 ng/mL EGF, ~50-100 ng/mL NRG1) is listed as “a minor or no effect on cell lineage balance”. For the same molecule, the “cell lineage balance across multiple experiments, ERBB ligands” value in experiment [2] (normalized to control lacking ERBB modulators, mean of 2 experiments) is “minimal impact on luminal cell percentages but profound impact on increasing basal cell percentages”.

B2: RSPO-3: WNT agonist, an R-spondin (protein, UniProt Q9BXY4 22-272, looked up)
R-spondin-3: QNASRGRRQRRMHPNVSQGCQGGCATCSDYNGCLSCKPRLFFALERIGMKQIGVCLSSCPSGYYGTRYPDINKCTKCKADCDTCFNKNFCTKCKSGFYLHLGKCLDNCPEGLEANNHTMECVSIVHCEVSEWNPWSPCTKKGKTCGFKRGTETRVREIIQHPSAKGNLCPPTNETRKCTVQRKKCQKGERGKKGRERKRKKPNKGESKEAIPDSKSLESSKEIPEQRENKQQQKKRKVQDKQKSVSVSTVH
B2: in experiment [3] (non-sorted mouse cells), the “type of organoids formed from bulk (non-sorted) mammary epithelial cells” value is “yielded a significant number of mixed organoids”.

B3: RSPO-1: WNT signaling agonist, an R-spondin (protein, UniProt Q2MKA7 21-263, looked up)
R-spondin-1: SRGIKGKRQRRISAEGSQACAKGCELCSEVNGCLKCSPKLFILLERNDIRQVGVCLPSCPPGYFDARNPDMNKCIKCKIEHCEACFSHNFCTKCKEGLYLHKGRCYPACPEGSSAANGTMECSSPAQCEMSEWSPWGPCSKKQQLCGFRRGSEERTRRVLHAPVGDHAACSDTKETRRCTVRRVPCPEGQKRRKGGQGRRENANRNLARKESKEAGAGSRRRKGQQQQQQQGTVGPLTSAGPA
For B3, the “organization of organoids formed in the absence of RSPO-1 over three successive passages” value in experiment [3] (non-sorted mouse cells, P0-P2, absence vs presence of RSPO-1, medium included BMP signaling inhibitor) was “cystic organization devoid of branching”. Further, in experiment [3] (non-sorted mouse cells), the “type of organoids formed from bulk (non-sorted) mammary epithelial cells” value is given as “yielded a significant number of mixed organoids”. In experiment [3] (sorted mouse ER+ luminal cells, medium with ~100 ng/mL RSPO-1 vs lacking RSPO-1, no BMP signaling inhibitor), the “organoid formation from sorted ER+ lineage cells” value is listed as “generally the same efficiency in either of the tested medium formulations”. Further, the “organoid organization from sorted basal lineage cells” value in experiment [3] (sorted mouse basal lineage cells, RSPO-1 (~100 ng/mL) containing medium vs RSPO-1 deficient) is reported as “a predominately mixed organization”. Also, the “organoid organization from sorted milk lineage cells” value in experiment [3] (sorted mouse milk lineage cells, RSPO-1 (~100 ng/mL) containing medium vs RSPO-1 deficient (cystic)) is “a more mixed organization of basal, luminal and other cells”. The “lineage balance in medium free of NOGGIN and RSPO-1 vs medium comprising both” value in experiment [4] is listed as “a significant reduction of basal cells with a concomitant increase in luminal cells”. In addition, in experiment [5] (luminal-promoting organoid medium, ~20-200 ng/mL RSPO-1), the “luminal-biased organoids with vs without exogenously-added RSPO-1” value was “did not reveal a significant increase or reduction of luminal-biased organoids”.

B4: NOGGIN: protein inhibitor of BMP signaling (protein, UniProt Q13253 28-232, looked up)
Noggin: QHYLHIRPAPSDNLPLVDLIEHPDPIFDPKEKDLNETLLRSLLGGHYDPGFMATSPPEDRPGGGGGAAGGAEDLAELDQLLRQRPSGAMPSEIKGLEFSEGLAQGKKQRLSKKLRRKLQMWLWSQTFCPVLYAWNDLGSRFWPRYVKVGSCFSKRSCSVPEGMVCKPSKSVHLTVLRWRCQRRGGQRCGWIPIQYPIISECKCSC
B4: the “lineage balance in medium free of NOGGIN and RSPO-1 vs medium comprising both” value in experiment [4] is “a significant reduction of basal cells with a concomitant increase in luminal cells”. For the same molecule, in experiment [5] (media comprising NOGGIN or LDN193189 alone vs both, successive passages), the “formation of luminal organoids, single vs dual BMP signaling inhibitor” value is “appeared sufficient to bias formation of luminal organoids”. Further, the “cell lineage balance, BMP signaling modulators” value in experiment [2] (just prior to first passage) is “decreased the number of basal cells while increasing the number of luminal cells”.

B5: BMP4: BMP signaling activator (protein, UniProt P12644 293-408, looked up)
Bone morphogenetic protein 4: SPKHHSQRARKKNKNCRRHSLYVDFSDVGWNDWIVAPPGYQAFYCHGDCPFPLADHLNSTNHAIVQTLVNSVNSSIPKACCVPTELSAISMLYLDEYDKVVLKNYQEMVVEGCGCR
On to B5, for which, in experiment [1] (vs condition where BMP signaling not modulated or inhibited), the “total cell count among formed organoids, BMP signaling modulators” value is given as “a marked net loss of total cells”. For the same molecule, the “cell lineage balance, BMP signaling modulators” value in experiment [2] (just prior to first passage) is “significant increase in basal cells and reduction in luminal cells”.

B6: TGFβ3: ligand of a TGFβ receptor (protein, UniProt P10600 301-412, looked up)
Transforming growth factor …: ALDTNYCFRNLEENCCVRPLYIDFRQDLGWKWVHEPKGYYANFCSGPCPYLRSADTTHSTVLGLYNTLNPEASASPCCVPQDLEPLTILYYVGRTPKVEQLSNMVVKSCKCS
With B6, in experiment [2] (~50 ng/mL, just prior to first passage), the “cell lineage balance, TGFβ receptor ligands” value is recorded as “results consistent with TGF β1”.

(Values after US20240191187A1, “MEDIA AND METHODS FOR GROWING MAMMARY ORGANOIDS” (STEMCELL TECHNOLOGIES CANADA INC., priority 2021, published 2024).)
